Paper PMC2893164, “Structural Basis of Gate-DNA Breakage and Resealing by Type II Topoisomerases” (PLoS ONE, 2010)

B1: S. pneumoniae ParC breakage-reunion domain (ParC55, residues 1-488) (domain or fragment, Streptococcus pneumoniae, UniProt P72525 1-488, looked up)
chain: MSNIQNMSLEDIMGERFGRYSKYIIQDRALPDIRDGLKPVQRRILYSMNKDSNTFDKSYRKSAKSVGNIMGNFHPHGDSSIYDAMVRMSQNWKNREILVEMHGNNGSMDGDPPAAMRYTEARLSEIAGYLLQDIEKKTVPFAWNFDDTEKEPTVLPAAFPNLLVNGSTGISAGYATDIPPHNLAEVIDAAVYMIDHPTAKIDKLMEFLPGPDFPTGAIIQGRDEIKKAYETGKGRVVVRSKTEIEKLKGGKEQIVIIEIPYEINKANLVKKIDDVRVNNKVAGIAEVRDESDRDGLRIAIELKKDANTELVLNYLFKYTDLQINYNFNMVAIDNFTPRQVGIVPILSSYIAHRREVILARSRFDKEKAEKRLHIVEGLIRVISILDEVIALIRASENKADAKENLKVSYDFTEEQAEAIVTLQLYRLTNTDVVVLQEEEAELREKIAMLAAIIGDERTMYNLMKKELREVKKKFATPRLSSLEDTAKA
modifications: Tyr 118 linked covalently to the 5' phosphate end of the cleaved DNA (in the cleaved complexes; not in the resealed complex)
notes: Topoisomerase IV subunit ParC, Streptococcus pneumoniae, breakage-reunion domain, residues 1-488; also called topoisomerase IV subunit ParC; source: E. coli, over-expressed, purified as described previously
B2: S. pneumoniae ParE TOPRIM domain (ParE30, residues 404-647) (domain or fragment, Streptococcus pneumoniae, UniProt Q59961 404-647, looked up)
chain: KNKKDKGLLSGKLTPAQSKNPAKNELYLVEGDSAGGSAKQGRDRKFQAILPLRGKVVNTAKAKMADILKNEEINTMIYTIGAGVGADFSIEDANYDKIIIMTDADTDGAHIQTLLLTFFYRYMRPLVEAGHVYIALPPLYKMSKGKGKKEEVAYAWTDGELEELRKQFGKGATLQRYKGLGEMNADQLWETTMNPETRTLIRVTIEDLARAERRVNVLMGDKVEPRRKWIEDNVKFTLEETTVF
notes: Topoisomerase IV subunit ParE, Streptococcus pneumoniae, TOPRIM domain, residues 404-647; also called topoisomerase IV subunit ParE; source: E. coli, over-expressed, purified as described previously

Legend:
[1] = biological target: the molecule itself; assay: crystal structure; ParC55 and ParE30 (equimolar, 4 mg/ml) co-crystallised with the 34-bp E-site DNA (1:1:1.2) and quinazolinedione PD 0305970, 20 mM MgCl2, pH 7.0; 3.1 A; the same crystals back-soaked and soaked with levofloxacin (2.9 A), EDTA (3.3 A) or EDTA then Mg2+ (3.5 A)
[2] = biological target: B1; assay: as above; conditions: both partners purified

Binder	stoichiometry N [1]	binding result [2]
B1	2	
B2		binds
